Measured values: patent US20250340640A1 (published 2025)

T1: recombinant protein TCRVB 6-5 (human, captured on a Biotin CAP sensor chip, so presumably biotinylated; the site is not stated)
T1 construct: also called TCRVβ 6-5; TCRβ V6-5*01
T1 TCR beta: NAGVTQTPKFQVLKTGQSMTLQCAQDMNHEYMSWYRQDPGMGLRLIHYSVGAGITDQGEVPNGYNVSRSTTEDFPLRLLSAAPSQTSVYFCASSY

B1: A-H.52 (scFv)
scFv: QVQLVQSGAEVKKPGSSVKVSCKASGYSFTLGYIHWVRQAPGQGLEWMGWFFPGSGNIKYNEKFKGRVTITADTSTSTAYMELSSLRSEDTAVYYCAGSYYSYDVLDYWGQGTTVTVSSGGGGSGGGGSGGGGSGGGGSDIQMTQSPSFLSASVGDRVTITCKASQNVGINVVWHQQKPGKAPKALIYSSSHRYSGVPSRFSGSGSGTEFTLTISSLQPEDFATYFCQQFKSYPLTFGQGTKLEIK
notes: also called phage clone; monovalent scFv
B2: A-H.53 (scFv)
scFv: QVQLVQSGAEVKKPGSSVKVSCKASGYSFRLTYIHWVRQAPGQGLEWMGWFFPGSGNIKYNEKFKGRVTITADTSTSTAYMELSSLRSEDTAVYYCAGSYYSYDVLDYWGQGTTVTVSSGGGGSGGGGSGGGGSGGGGSDIQMTQSPSFLSASVGDRVTITCKASQNVGINVVWHQQKPGKAPKALIYSSSHRYSGVPSRFSGSGSGTEFTLTISSLQPEDFATYFCQQFKSYPLTFGQGTKLEIK
notes: Described only as a phage clone; also called phage clone
B3: A-H.54 (scFv)
scFv: QVQLVQSGAEVKKPGSSVKVSCKASGYSFHNWYIHWVRQAPGQGLEWMGWFFPGSGNIKYNEKFKGRVTITADTSTSTAYMELSSLRSEDTAVYYCAGSYYSYDVLDYWGQGTTVTVSSGGGGSGGGGSGGGGSGGGGSDIQMTQSPSFLSASVGDRVTITCKASQNVGINVVWHQQKPGKAPKALIYSSSHRYSGVPSRFSGSGSGTEFTLTISSLQPEDFATYFCQQFKSYPLTFGQGTKLEIK
notes: as for B2

Legend:
[1] = biological target: T1, recombinant protein TCRVB 6-5; assay: SPR, TCRVB 6-5 captured on Biotin CAP Series S chip, 1:1 model, 25C
Procedure: (§1) TCRVB 6-5 at 5 μg/mL was immobilized on a Biotin CAP Series S Sensor Chip to 60 RU. A-H.52 was diluted to 50 nM and then serially diluted two fold. Association was 120 seconds, dissociation was 300 seconds. This assay was run in 1×HBS-EP+ Buffer pH 7.4 and 25C. The data was fit using a 1:1 binding model. A-H.52 is a phage clones and is a monovalent scFv. A-H.52 has two mutations on CDRH1.
(§2) TCRVB 6-5 at 5 ug/mL was immobilized on a Biotin CAP Series S Sensor Chip to 60 RU. A-H.53 was diluted to 50 nM and then serially diluted two fold. Association was 120 seconds, dissociation was 300 seconds. This assay was run in 1×HBS-EP+ Buffer pH 7.4 and 25C. The data was fit using a 1:1 binding model. A-H.53 (phage clone) affinity is in the pM range (Table 16).
as §1, with “A-H.54” for “A-H.52”, “model.” for “model. A-H.52 is a phage clones and is a monovalent scFv. A-H.52 has two mutations on CDRH1.”

[2] = biological target: T1, recombinant protein TCRVB 6-5; assay: SPR, compared with BJM0277
Procedure: as §1, §2
as §1, with “A-H.54” for “A-H.52”, “model.” for “model. A-H.52 is a phage clones and is a monovalent scFv. A-H.52 has two mutations on CDRH1.”

Row | Binder | Kd [1] [nM] | fold greater affinity than BJM0277 [2] [fold]
1 | B1 | 1.76 | 20
2 | B2 | 0.165 | 200
3 | B3 | 2.22 | 17
